Assay results: the supplement of paper PMC10065799, “High-throughput profiling of sequence recognition by tyrosine kinases and SH2 domains using bacterial peptide display” (eLife, 2023)

Columns and labels:
FGFR1 = FGFR1 (UniProt P11362); test: phosphorylation enrichment, bacterial display (enrichment ratio); higher = better substrate or ligand; peptides without Tyr show the background
Jak2 = Jak2 (UniProt O60674); test: as above
FGFR3 = FGFR3 (UniProt P22607); test: as above
c-Src = test: as above
EPHB2 = EPHB2 (UniProt P29323); test: as above
Hck = Hck (UniProt P08631); test: as above
MERTK = MERTK (UniProt Q12866); test: as above
c-Abl (mouse) = test: as above
Fer (mouse) = test: as above
Fyn = Fyn (UniProt P06241); test: as above
EPHB1 = EPHB1 (UniProt P54762); test: as above
AncSZ = test: as above
Fes = Fes (UniProt P07332); test: as above
Grb2 SH2 = Grb2 SH2 (UniProt P62993); test: SH2 binding enrichment of the phosphorylated peptide, bacterial display (enrichment ratio); higher = better substrate or ligand; peptides without Tyr show the background
SHP2-C SH2 = test: as above
c-Src SH2 = test: as above
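For SH2 binding enrichment of the phosphorylated peptide, bacterial display in this document: peptide library displayed on the E. coli surface as eCPX fusions, selected cells deep-sequenced, score is each peptide's frequency after selection divided by its frequency in the input.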
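For phosphorylation enrichment, bacterial display in this document: 11-residue human phosphosite peptides and single-mutation variants displayed on the E. coli surface, counted by deep sequencing, each peptide's frequency after selection divided by its frequency in the unselected input library; frequency after pTyr selection over input frequency; kinase dosed for 20-30% of maximal phosphorylation in three min.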

Sequence of Jak2 (O60674 whole entry, looked up): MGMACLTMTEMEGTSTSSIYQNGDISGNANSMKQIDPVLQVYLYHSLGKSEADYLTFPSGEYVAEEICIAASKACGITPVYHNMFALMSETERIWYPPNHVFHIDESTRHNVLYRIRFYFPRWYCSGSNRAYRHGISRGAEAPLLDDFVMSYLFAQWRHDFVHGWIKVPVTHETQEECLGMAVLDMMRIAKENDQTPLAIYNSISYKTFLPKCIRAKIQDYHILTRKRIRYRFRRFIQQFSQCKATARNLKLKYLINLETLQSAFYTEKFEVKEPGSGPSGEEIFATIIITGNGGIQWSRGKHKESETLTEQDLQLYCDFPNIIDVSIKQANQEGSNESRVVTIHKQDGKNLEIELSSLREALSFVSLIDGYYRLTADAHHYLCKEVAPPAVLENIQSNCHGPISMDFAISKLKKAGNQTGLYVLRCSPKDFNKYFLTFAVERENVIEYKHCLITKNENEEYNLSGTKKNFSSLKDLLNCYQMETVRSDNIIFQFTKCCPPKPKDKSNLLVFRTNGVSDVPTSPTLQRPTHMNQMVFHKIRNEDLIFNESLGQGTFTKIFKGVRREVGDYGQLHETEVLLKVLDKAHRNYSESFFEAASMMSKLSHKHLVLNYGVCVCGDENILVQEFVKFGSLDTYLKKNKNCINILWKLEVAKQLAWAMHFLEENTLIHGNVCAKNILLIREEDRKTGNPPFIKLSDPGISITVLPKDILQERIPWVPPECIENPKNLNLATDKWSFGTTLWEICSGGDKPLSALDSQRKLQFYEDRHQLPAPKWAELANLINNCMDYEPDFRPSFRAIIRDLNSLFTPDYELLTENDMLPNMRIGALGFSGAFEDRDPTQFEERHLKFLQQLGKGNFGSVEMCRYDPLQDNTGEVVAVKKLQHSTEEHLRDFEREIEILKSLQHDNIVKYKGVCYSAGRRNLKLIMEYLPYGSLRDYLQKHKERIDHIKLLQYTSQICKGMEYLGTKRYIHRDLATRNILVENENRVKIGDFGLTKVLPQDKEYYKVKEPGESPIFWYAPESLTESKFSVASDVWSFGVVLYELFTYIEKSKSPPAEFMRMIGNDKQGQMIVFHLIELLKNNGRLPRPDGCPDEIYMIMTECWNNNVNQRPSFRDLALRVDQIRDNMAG
Sequence of FGFR3 (P22607 whole entry, looked up): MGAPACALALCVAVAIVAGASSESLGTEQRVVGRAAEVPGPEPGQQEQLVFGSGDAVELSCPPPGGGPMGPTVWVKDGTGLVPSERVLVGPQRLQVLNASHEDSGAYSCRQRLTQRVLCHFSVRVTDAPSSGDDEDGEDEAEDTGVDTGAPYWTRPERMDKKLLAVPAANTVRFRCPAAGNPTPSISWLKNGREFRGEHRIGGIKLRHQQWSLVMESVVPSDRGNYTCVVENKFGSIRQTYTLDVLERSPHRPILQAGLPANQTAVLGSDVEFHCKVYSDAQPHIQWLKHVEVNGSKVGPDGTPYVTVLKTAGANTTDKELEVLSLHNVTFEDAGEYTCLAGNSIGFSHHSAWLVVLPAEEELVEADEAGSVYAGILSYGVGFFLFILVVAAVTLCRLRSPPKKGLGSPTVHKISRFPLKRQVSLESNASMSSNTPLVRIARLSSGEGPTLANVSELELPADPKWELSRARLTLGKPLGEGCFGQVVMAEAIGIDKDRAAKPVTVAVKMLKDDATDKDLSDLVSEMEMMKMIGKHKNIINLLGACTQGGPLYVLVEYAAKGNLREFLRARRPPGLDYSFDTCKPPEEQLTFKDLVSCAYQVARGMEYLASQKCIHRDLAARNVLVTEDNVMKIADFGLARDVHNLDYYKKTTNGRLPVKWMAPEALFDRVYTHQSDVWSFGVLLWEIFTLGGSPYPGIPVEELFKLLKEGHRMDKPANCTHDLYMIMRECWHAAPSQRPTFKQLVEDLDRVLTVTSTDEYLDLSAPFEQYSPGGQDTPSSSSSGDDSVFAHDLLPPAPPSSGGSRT
Sequence of MERTK (Q12866 whole entry, looked up): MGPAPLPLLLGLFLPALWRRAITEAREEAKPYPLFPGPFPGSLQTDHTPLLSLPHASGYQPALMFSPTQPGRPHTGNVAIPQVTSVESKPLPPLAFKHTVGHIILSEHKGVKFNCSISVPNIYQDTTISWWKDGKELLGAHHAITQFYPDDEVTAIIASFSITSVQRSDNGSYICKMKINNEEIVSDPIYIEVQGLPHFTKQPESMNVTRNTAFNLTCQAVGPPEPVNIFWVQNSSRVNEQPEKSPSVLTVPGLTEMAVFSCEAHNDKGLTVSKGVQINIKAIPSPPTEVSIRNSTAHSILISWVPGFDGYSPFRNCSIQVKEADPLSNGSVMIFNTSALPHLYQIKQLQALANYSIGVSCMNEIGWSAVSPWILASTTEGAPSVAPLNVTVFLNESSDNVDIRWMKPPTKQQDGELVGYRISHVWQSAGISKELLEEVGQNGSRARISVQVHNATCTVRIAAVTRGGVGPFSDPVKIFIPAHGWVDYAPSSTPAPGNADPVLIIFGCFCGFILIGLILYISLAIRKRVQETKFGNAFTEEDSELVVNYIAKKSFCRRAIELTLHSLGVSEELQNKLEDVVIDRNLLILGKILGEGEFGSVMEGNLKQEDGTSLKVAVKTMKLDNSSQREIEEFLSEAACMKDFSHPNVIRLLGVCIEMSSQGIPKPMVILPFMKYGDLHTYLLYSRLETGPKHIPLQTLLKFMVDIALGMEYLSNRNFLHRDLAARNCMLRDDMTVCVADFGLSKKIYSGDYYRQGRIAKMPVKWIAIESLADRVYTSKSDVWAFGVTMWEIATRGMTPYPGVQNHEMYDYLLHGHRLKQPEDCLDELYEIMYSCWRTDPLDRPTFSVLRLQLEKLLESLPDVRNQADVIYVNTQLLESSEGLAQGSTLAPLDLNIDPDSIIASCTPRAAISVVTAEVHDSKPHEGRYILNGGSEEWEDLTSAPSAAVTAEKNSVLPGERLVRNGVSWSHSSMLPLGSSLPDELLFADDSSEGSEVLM
Sequence of FGFR1 (P11362 whole entry, looked up): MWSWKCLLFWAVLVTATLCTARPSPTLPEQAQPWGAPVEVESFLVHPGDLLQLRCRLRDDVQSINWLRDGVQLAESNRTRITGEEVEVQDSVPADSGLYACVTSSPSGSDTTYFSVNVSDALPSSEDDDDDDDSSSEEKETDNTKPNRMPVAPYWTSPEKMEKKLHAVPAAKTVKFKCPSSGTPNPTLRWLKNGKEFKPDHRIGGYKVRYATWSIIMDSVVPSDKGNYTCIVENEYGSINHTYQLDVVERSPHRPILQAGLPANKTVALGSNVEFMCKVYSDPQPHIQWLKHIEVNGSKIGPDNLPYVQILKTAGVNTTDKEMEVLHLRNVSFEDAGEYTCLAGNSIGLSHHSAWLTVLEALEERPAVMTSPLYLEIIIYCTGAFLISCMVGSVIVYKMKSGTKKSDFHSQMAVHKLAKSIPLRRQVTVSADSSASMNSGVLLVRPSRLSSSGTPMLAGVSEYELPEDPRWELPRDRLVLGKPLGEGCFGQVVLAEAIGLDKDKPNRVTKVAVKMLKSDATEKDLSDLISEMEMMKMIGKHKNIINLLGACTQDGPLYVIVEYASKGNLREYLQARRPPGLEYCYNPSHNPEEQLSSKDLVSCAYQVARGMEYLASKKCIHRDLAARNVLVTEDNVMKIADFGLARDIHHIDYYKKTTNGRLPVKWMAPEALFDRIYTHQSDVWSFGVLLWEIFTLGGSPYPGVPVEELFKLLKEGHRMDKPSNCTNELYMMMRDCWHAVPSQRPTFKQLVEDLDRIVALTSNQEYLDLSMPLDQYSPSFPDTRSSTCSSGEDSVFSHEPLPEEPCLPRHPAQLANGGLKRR
Sequence of Fes (P07332 whole entry, looked up): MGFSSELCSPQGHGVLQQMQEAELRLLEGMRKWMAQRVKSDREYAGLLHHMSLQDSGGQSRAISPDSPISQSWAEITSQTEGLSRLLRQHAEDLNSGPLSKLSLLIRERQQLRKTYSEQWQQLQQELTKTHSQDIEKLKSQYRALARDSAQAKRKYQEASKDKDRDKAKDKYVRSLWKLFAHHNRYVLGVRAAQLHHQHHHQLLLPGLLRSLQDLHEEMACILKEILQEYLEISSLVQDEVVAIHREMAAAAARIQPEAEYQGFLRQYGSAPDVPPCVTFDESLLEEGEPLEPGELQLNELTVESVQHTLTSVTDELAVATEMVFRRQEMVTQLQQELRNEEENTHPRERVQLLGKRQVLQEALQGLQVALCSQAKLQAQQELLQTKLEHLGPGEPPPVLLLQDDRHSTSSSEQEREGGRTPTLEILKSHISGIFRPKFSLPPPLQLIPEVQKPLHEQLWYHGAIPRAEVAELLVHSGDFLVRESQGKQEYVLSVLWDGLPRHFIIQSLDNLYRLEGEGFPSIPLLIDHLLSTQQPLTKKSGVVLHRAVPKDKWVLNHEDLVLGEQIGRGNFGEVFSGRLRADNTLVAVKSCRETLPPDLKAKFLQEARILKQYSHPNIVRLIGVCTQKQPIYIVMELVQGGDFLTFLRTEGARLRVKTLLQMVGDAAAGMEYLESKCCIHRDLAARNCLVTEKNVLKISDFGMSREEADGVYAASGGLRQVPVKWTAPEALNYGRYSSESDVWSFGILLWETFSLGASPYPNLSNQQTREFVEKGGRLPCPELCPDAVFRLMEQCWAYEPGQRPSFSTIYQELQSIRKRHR
Sequence of Grb2 SH2 (P62993 whole entry, looked up): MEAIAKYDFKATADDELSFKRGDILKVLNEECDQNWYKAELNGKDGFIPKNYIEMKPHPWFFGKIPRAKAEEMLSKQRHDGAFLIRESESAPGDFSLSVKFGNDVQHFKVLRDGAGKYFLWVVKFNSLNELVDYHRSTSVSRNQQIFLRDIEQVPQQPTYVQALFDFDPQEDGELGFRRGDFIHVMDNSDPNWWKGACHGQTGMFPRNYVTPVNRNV

| Sequence | phosphorylation enrichment (FGFR1) | phosphorylation enrichment (Jak2) | phosphorylation enrichment (FGFR3) | phosphorylation enrichment (c-Src) | phosphorylation enrichment (EPHB2) | phosphorylation enrichment (Hck) | phosphorylation enrichment (MERTK) | phosphorylation enrichment (c-Abl (mouse)) | phosphorylation enrichment (Fer (mouse)) | phosphorylation enrichment (Fyn) | phosphorylation enrichment (EPHB1) | phosphorylation enrichment (AncSZ) | phosphorylation enrichment (Fes) | SH2 binding enrichment (Grb2 SH2) | SH2 binding enrichment (SHP2-C SH2) | SH2 binding enrichment (c-Src SH2) |
| --- | --- | --- | --- | --- | --- | --- | --- | --- | --- | --- | --- | --- | --- | --- | --- | --- |
| PGVNYYFRVSA | 0.787 | 1.26 | 1.01 | 0.331 | 0.706 | 0.469 | 0.448 | 0.79 | 0.466 | 0.466 | 0.715 | 1.11 | 1.08 | 0.849 | 1.64 | 0.611 |
| PKEEPYKMQEK [SLC5A3_Y565_Q566K] | 0.565 | 0.892 | 0.587 | 0.607 | 0.403 | 0.415 | 0.467 | 0.969 | 0.612 | 0.386 | 0.544 | 0.885 | 1.21 | 0.766 | 0.624 | 0.541 |
| PKGIRYGQGAG [CSRP3_Y73_G72R] | 0.339 | 0.521 | 0.453 | 0.585 | 0.375 | 0.587 | 0.9 | 0.927 | 0.349 | 0.411 | 0.502 | 0.532 | 0.504 | 0.984 | 0.867 | 0.484 |
| PLCPDYQEPSR [DDR2_Y481_R478C] | 0.643 | 1.23 | 1.46 | 0.61 | 2.01 | 1.01 | 0.854 | 0.896 | 0.999 | 1.12 | 1.43 | 3.5 | 2 | 0.86 | 0.781 | 0.786 |
| PLDGEYFSLQI [TP53_Y327_T329S] | 6.64 | 5.35 | 4.26 | 5.24 | 1.24 | 1.76 | 0.737 | 2.77 | 0.749 | 3.53 | 1.15 | 3.12 | 2.23 | 0.762 | 0.836 | 0.387 |
| PLKFLYPNIDK [STAT1_Y668_YF] | 1.54 | 1.65 | 0.822 | 0.939 | 1.3 | 1.09 | 0.846 | 1.38 | 1.13 | 1.16 | 0.945 | 1.26 | 2.18 | 0.714 | 0.647 | 0.72 |
| PLKYLYPNIDK [STAT1_Y668] | 0.41 | 1 | 0.614 | 0.461 | 0.69 | 0.782 | 0.786 | 0.775 | 0.614 | 0.564 | 0.638 | 0.88 | 0.896 | 0.785 | 0.735 | 0.825 |
| PLQKTYNYNML [SLC4A1_Y553_V557M] | 0.589 | 0.649 | 0.678 | 0.52 | 1.03 | 0.578 | 0.52 | 0.816 | 0.395 | 0.39 | 0.76 | 0.878 | 1.01 | 0.78 | 0.623 | 1.37 |
| PLQSEYSSITT [ITGB4_Y1760] | 1.08 | 0.814 | 1.58 | 1.77 | 2.18 | 1.92 | 1.77 | 1.28 | 1.83 | 1.58 | 3.14 | 1.89 | 2.13 | 0.696 | 0.57 | 0.952 |
| PLSGEYFTLQI [TP53_Y327_D324S] | 13.7 | 6.87 | 9.65 | 3.48 | 1.2 | 1.89 | 0.763 | 2.51 | 0.722 | 4.49 | 1.82 | 3.93 | 1.62 | 0.793 | 0.679 | 0.432 |
| PLTRSYIREKV [CYP2C8_Y243_A238P] | 0.341 | 0.591 | 0.48 | 0.448 | 0.484 | 0.312 | 0.406 | 0.305 | 0.262 | 0.474 | 0.276 | 0.582 | 0.413 | 0.923 | 0.904 | 0.351 |
| PMDGEYFTLQI [TP53_Y327_L323M] | 12 | 4.86 | 9.07 | 5.21 | 0.753 | 2.79 | 0.604 | 2.02 | 1.57 | 4.35 | 1.5 | 4.04 | 1.95 | 0.978 | 0.407 | 0.394 |
| PMQLPYDSTWE [PDGFRB_Y589] | 0.438 | 1.24 | 0.646 | 1.1 | 0.399 | 0.554 | 0.573 | 1.12 | 0.575 | 0.561 | 0.533 | 0.975 | 1.69 | 0.673 | 1.47 | 1.17 |
| PNQRRYVYYYS [PTEN_Y174_S170N] | 3 | 1.37 | 1.61 | 1.06 | 1.57 | 1.29 | 3.81 | 0.841 | 0.817 | 1.86 | 1.07 | 2.88 | 2.29 | 1.17 | 3.49 | 2.17 |
| PPDGEYFTLQI [TP53_Y327_L323P] | 12.4 | 3.69 | 10.2 | 5.4 | 1.14 | 2.75 | 0.902 | 2.33 | 1.41 | 3.74 | 1.19 | 3.41 | 1.74 | 0.561 | 1.1 | 0.537 |
| PQGVRYTYTID [DCX_Y103_I104T] | 0.57 | 1.05 | 0.784 | 0.634 | 0.495 | 0.601 | 0.338 | 0.605 | 0.499 | 0.587 | 0.702 | 1.05 | 1.36 | 0.779 | 3.15 | 1.55 |
